Experimental data published in patent US8399213B2, “Method for monitoring intracellular tyrosine phosphatase activity” (University of Southern California, priority 2008, dated 2013).
Square brackets hold non-standard residues; d marks the D form. Ends that are not written are not given here. Ala(7-OPO3H2-coumarin-4-yl) = N[C@@H](Cc1cc(=O)oc2cc(OP(=O)(O)O)ccc12)C(=O)O

Tests used:
[1] = tested on: intracellular PTPs in JTAg cells; experiment: Intracellular dephosphorylation of nucleofected pCAP peptide, flow cytometry; format: cell-based, human; conditions: preincubated with 10 mM vanadate; 100 μM 9LckpCAP394 peptide; 1′ after nucleofection
Experimental: FIG. 3. Dephosphorylation of pCAP peptide by intracellular PTPs after nucleofection. (A) Time-course of intracellular dephosphorylation of nucleofected 9Lck394 CAP-based peptides. JTAg human T cells were nucleofected in the presence of 100 μM pCAP peptide (blue lines), 100 μM CAP peptide (red lines) or 100 μM of a non-hydrolyzable Et2pCAP peptide (green lines). Cell fluorescence was measured using a BD LSR-II with a DAPI filter at 30″ (dotted lines) and 1′ (continuous lines). […] (B) Fluorescence of non-nucleofected JTAg cells incubated in the presence of the CAP-based peptides used for the experiment in panel (A). Graphs show fluorescence of non-nucleofected cells incubated with 100 μM pCAP peptide (dashed blue line), 100 μM CAP peptide (dashed red line) or 100 μM of a non-hydrolyzable Et2pCAP peptide (dashed green line). Data from panel (A) and (B) are representative of the same experiment. […] JTAg cells were nucleofected in the presence of 100 μM 9LckpCAP394 peptide and cell fluorescence was measured at 1′ (pink line), 2.5′ (purple line), 5′ (light blue line), and 10′ (dark blue line). […]
FIG. 4. […] Dashed red and blue lines show fluorescence of non-nucleofected cells incubated with pCAP peptide (blue dashed line) or CAP peptide (red dashed line), and vanadate.
FIG. 5. […] The fluorescence of cells was assessed at 1′ (black lines) or 15′ (yellow lines) after fixation. […]

Jurkat TAg (JTAg) cells = experiment: Cellular uptake of cell-permeable CAP peptides, flow cytometry; format: cell-based; conditions: JTAg T cells treated with lipid-R7 peptides
Experimental: FIG. 6. […] Cells were incubated for 1 hour with RPMI with 0.5% FBS with DMSO alone or containing 12.5 μM of Ant-CAP or R8-CAP. The fluorescence (Y axis) versus forward scatter (X axis) of 10,000 cells gated as live T cells on the forward versus side scatter plot is shown. The percentage (%) of positive (showing fluorescence over the control level) cells is shown in each panel.
The inventors have shown that pCAP peptides are dephosphorylated by PTPs, but are not recognized by serine/threonine phosphatases, which makes them particularly suitable as probes to detect intracellular PTP activity (FIG. 1). […] The amount of enzyme used was normalized to be the same activity on DiFMUP. […] To determine if these peptides are suitable substrates for cell-based screening of PTP inhibitors, the inventors further assessed dephosphorylation in microinjected cells. Using fluorescence microscopy, intracellular dephosphorylation of the microinjected peptides was observed as recognized by an increase in fluorescence over time and was inhibited by a known PTP inhibitor (FIG. 2). […] Human Jurkat TAg (JTAg) cells with CAP-ANT and CAP-R8 peptides were incubated and analyzed by flow cytometry. […]
Cells are added to wells of a plate at a concentration of up to 10 million/mL. […] Cells can be analyzed with any flow cytometry system equipped with appropriate excitation and emission filters.

T cell PTP (TCPTP) = target: T1, T cell PTP (TCPTP) (Homo sapiens, UniProt P17706); conditions: cited from earlier work
T1 sequence (P17706 1-415): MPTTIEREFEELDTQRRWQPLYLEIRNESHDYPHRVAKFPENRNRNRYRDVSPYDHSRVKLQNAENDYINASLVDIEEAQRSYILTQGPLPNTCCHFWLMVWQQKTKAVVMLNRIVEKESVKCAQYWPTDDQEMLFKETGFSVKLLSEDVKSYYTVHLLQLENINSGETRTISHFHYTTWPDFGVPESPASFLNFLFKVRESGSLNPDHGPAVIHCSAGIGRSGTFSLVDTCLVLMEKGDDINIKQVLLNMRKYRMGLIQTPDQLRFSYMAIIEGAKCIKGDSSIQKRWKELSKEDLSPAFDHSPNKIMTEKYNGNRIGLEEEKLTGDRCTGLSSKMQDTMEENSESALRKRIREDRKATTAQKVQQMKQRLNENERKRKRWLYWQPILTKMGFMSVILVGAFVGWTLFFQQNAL

YOP = YOP (Yersinia enterocolitica, UniProt P15273); conditions: excitation at 340 nm and emission at 460 nm; cited from earlier work
PTPN22 = target: T2, PTPN22 (Homo sapiens, UniProt Q9Y2R2); experiment: Dephosphorylation of pCAP peptide by PTPN22; format: biochemical
T2 sequence (Q9Y2R2 1-807): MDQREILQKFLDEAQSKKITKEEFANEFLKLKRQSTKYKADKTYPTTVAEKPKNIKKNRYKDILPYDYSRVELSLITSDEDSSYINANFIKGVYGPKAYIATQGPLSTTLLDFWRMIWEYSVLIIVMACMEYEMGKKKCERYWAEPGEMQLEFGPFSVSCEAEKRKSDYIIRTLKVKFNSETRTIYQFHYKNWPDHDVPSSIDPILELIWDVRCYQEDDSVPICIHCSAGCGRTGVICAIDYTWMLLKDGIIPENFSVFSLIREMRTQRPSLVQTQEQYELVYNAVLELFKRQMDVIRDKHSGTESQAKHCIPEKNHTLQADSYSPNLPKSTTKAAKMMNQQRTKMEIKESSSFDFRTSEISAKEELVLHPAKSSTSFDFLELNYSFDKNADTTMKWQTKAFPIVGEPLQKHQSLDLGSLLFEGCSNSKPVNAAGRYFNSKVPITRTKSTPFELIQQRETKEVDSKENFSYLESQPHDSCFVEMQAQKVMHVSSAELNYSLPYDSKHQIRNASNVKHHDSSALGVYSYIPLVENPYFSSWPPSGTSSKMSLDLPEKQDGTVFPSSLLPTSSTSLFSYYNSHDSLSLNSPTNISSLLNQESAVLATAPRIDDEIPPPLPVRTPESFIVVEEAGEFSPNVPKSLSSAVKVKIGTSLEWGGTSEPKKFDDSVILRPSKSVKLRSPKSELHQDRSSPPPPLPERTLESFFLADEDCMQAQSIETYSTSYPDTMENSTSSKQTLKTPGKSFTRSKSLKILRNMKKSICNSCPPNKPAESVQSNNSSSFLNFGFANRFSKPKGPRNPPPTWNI
Experimental: (§1) (A) Structure of CAP, pCAP, and Et2-pCAP, a non-hydrolyzable form of pCAP. (B) Kinetic parameters of dephosphorylation of 9LckpCAP394 peptide by PTPN22. (C) Time-course of dephosphorylation of 0.2 mM 9LckpCAP394 peptide by PP1 (filled triangles), PP2A (open squares), or PP2B (filled squares). Linear regression is also shown. The activity of the enzymes was normalized using difluoromethylumbelliferone phosphate (DiFMUP) as substrate and equal units were used for all the assays on pCAP peptide. Open diamonds and dashed line show representative activity of all enzymes on 0.2 mM DiFMUP.
(§2) The amount of enzyme used was normalized to be the same activity on DiFMUP. […] To determine if these peptides are suitable substrates for cell-based screening of PTP inhibitors, the inventors further assessed dephosphorylation in microinjected cells. […] In principle, any FACS system equipped with the appropriate excitation and emission filters could be used. […] Human Jurkat TAg (JTAg) cells with CAP-ANT and CAP-R8 peptides were incubated and analyzed by flow cytometry.

[2] = tested on: serine-threonine phosphatases (PP1, PP2A, PP2B); experiment: Dephosphorylation of pCAP peptide by serine-threonine phosphatases, plate reader time-course; format: biochemical; conditions: 0.2 mM peptide; optimal buffer for each enzyme; enzyme amount normalized to same activity on DiFMUP
Experimental: as §1, §2

[3] = tested on: T3, 9LckpCAP394 peptide (EDNE-pCAP-TARE)
T3 sequence: EDNEXTARE

[4] = target: T4, 9LckpCAP394 peptide (EDNE-pCAP-TARE)
T4 chain: EDNEXTARE

YOP, sequence (P15273 whole entry): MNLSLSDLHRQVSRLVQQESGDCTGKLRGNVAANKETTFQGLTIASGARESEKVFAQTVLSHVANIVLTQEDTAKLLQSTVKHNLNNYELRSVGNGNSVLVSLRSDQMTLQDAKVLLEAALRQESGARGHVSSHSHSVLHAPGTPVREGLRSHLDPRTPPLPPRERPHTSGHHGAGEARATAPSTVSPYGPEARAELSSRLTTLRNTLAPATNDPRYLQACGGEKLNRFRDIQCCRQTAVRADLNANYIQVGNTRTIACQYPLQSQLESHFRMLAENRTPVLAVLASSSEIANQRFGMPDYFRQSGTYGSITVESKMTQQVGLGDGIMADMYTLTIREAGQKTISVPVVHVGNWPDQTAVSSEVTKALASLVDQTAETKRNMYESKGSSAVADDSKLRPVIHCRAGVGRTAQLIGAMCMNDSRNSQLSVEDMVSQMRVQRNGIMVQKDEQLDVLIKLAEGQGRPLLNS

## [O]=[V]([O-])([O-])[O-] [Vanadate, vanadate]
[1]
  inhibition of dephosphorylation of pCAP peptide in nucleofected JTAg cells: inhibits the dephosphorylation

## C14-betaAla-R7-CAP
Jurkat TAg (JTAg) cells
  efficacy of internalization compared to non-lipidic tags: substantially increase efficacy of internalization

## C16-betaAla-R7-CAP
Jurkat TAg (JTAg) cells
  efficacy of internalization compared to non-lipidic tags: substantially increase efficacy of internalization

## DADE-pCAP-GPAA-NH2 (DADEXGPAX; pCAP residue, C-terminal amide; artificial YOP substrate) [peptide 1]
T cell PTP (TCPTP)
  turnover by human PTPs including TCPTP: efficiently turned over
YOP
  fluorescence change on dephosphorylation by YOP: linear increase in fluorescence

## EDNE-pCAP-TARE (EDNE[Ala(7-OPO3H2-coumarin-4-yl)]TARE) [9Lck394p CAP, pCAP peptide, artificial PTPN22 substrate]
PTPN22
  hydrolysis by PTPN22: efficiently hydrolyzed
[2]
  hydrolysis by serine-threonine phosphatases: ineffective at hydrolysis

## PP1
[3]
  hydrolysis (dephosphorylation) of 0.2 mM pCAP peptide over time, fluorescence excitation 340 nm / emission 460 nm: The serine-threonine phosphatases were ineffective at hydrolysis of this peptide

## PP2A
[3]
  hydrolysis (dephosphorylation) of 0.2 mM pCAP peptide over time, fluorescence excitation 340 nm / emission 460 nm: The serine-threonine phosphatases were ineffective at hydrolysis of this peptide

## PP2B
[3]
  hydrolysis (dephosphorylation) of 0.2 mM pCAP peptide over time, fluorescence excitation 340 nm / emission 460 nm: The serine-threonine phosphatases were ineffective at hydrolysis of this peptide

B1: PTPN22 (protein)
chain: MDQREILQKFLDEAQSKKITKEEFANEFLKLKRQSTKYKADKTYPTTVAEKPKNIKKNRYKDILPYDYSRVELSLITSDEDSSYINANFIKGVYGPKAYIATQGPLSTTLLDFWRMIWEYSVLIIVMACMEYEMGKKKCERYWAEPGEMQLEFGPFSVSCEAEKRKSDYIIRTLKVKFNSETRTIYQFHYKNWPDHDVPSSIDPILELIWDVRCYQEDDSVPICIHCSAGCGRTGVICAIDYTWMLLKDGIIPENFSVFSLIREMRTQRPSLVQTQEQYELVYNAVLELFKRQM
[4]
  hydrolysis (dephosphorylation) of pCAP peptide, fluorescence excitation 340 nm / emission 460 nm: efficiently hydrolyzed by PTPN22
